± gives the uncertainty stated by the source.
B1: F-BAR and double SH3 domains protein 1, residues 467 to 528; numbered along this chain, Q86WN1 (parent)
chain: RALPCPAHVVFRYQAGREDELTITEGEWLEVIEEGDADEWVKARNQHGEVGFVPERYLNFPD

Variants of: B1
Test: abundance fitness (aPCA) (normalised: wild type 0, dead -1); higher = more abundant; growth selection in yeast, the domain comes from the species named
Conditions: Homo sapiens

Abundance fitness, by site and new letter:
K42: A -0.511 ± 0.086, P -0.974 ± 0.15, C -0.25 ± 0.11, I 0.092 ± 0.085, G -0.775 ± 0.14, H -0.571 ± 0.14, S -0.325 ± 0.058, Y -0.381 ± 0.15, N -0.575 ± 0.23, D -0.664 ± 0.17, L -0.166 ± 0.044, F -0.207 ± 0.079, V -0.105 ± 0.05, T -0.076 ± 0.069, E -0.496 ± 0.14, R -0.182 ± 0.058, Q -0.129 ± 0.074, M -0.176 ± 0.057, W -0.181 ± 0.083
E55: D -0.057 ± 0.11, W -0.151 ± 0.056, S -0.069 ± 0.05, F -0.165 ± 0.058, H -0.133 ± 0.1, G -0.132 ± 0.055, C -0.02 ± 0.061, M 0.035 ± 0.049, Y -0.196 ± 0.081, A -0.042 ± 0.058, L 0.059 ± 0.04, K -0.02 ± 0.079, Q -0.138 ± 0.069, R 0.038 ± 0.042, V 0.054 ± 0.05, P -0.123 ± 0.088, N -0.055 ± 0.091, T 0.026 ± 0.054
E49: P -1.05 ± 0.19, F -0.088 ± 0.09, Y -0.427 ± 0.14, V -0.139 ± 0.066, K -0.026 ± 0.096, C -0.029 ± 0.095, L -0.13 ± 0.047, S -0.022 ± 0.052, T -0.075 ± 0.07, H -0.015 ± 0.12, A -0.131 ± 0.093, Q 0.101 ± 0.073, I 0.1 ± 0.095, R -0.085 ± 0.058, D -0.118 ± 0.11
N45: V -0.949 ± 0.16, K -0.447 ± 0.1, P -0.301 ± 0.15, A -0.567 ± 0.1, T -0.402 ± 0.11, F -0.869 ± 0.17, S -0.571 ± 0.11, I -0.212 ± 0.14, M -0.891 ± 0.24, G -0.576 ± 0.098, E -1.08 ± 0.37, H -0.166 ± 0.17, L -0.737 ± 0.086, C -0.994 ± 0.28, D -0.571 ± 0.2, Q -0.884 ± 0.22, Y -0.377 ± 0.18, R -0.941 ± 0.12, W -1.16 ± 0.22
F52: D -0.431 ± 0.1, K 0.048 ± 0.072, Y 0.093 ± 0.085, V -0.127 ± 0.039, C -0.189 ± 0.088, N -0.175 ± 0.093, L 0.104 ± 0.04, T -0.284 ± 0.079, Q -0.259 ± 0.071, E -0.322 ± 0.058, R -0.063 ± 0.044, W 0.033 ± 0.062, A -0.249 ± 0.055, G -0.491 ± 0.055, I -0.152 ± 0.12, H -0.199 ± 0.093, S -0.059 ± 0.058, M -0.019 ± 0.061
G51: C -0.958 ± 0.15, Q -1.03 ± 0.24, Y -0.736 ± 0.16, V -0.857 ± 0.096, P -0.952 ± 0.16, T -0.698 ± 0.091, L -0.273 ± 0.057, W -0.954 ± 0.13, K -0.42 ± 0.28, M -0.843 ± 0.12, D -0.706 ± 0.19, F -0.669 ± 0.12, N -1.17 ± 0.44, H -0.973 ± 0.38, E -0.863 ± 0.18, A -0.691 ± 0.1
V53: N -0.829 ± 0.24, D -0.745 ± 0.12, Y -0.466 ± 0.084, E -0.934 ± 0.16, P -0.922 ± 0.18, G -0.624 ± 0.078, Q -0.624 ± 0.1, I -0.031 ± 0.085, W -1.03 ± 0.16, C -0.262 ± 0.081, A -0.564 ± 0.081, H -0.675 ± 0.24, S -0.981 ± 0.097, T -0.868 ± 0.13, R -0.662 ± 0.065, M -0.673 ± 0.11, F -0.823 ± 0.17
V50: D -0.599 ± 0.25, H -0.554 ± 0.12, S -0.148 ± 0.068, N -0.737 ± 0.25, I -0.235 ± 0.12, R -0.607 ± 0.071, K -0.187 ± 0.075, E 0.016 ± 0.066, A -0.211 ± 0.065, Q -0.093 ± 0.061, L -0.285 ± 0.052, T -0.11 ± 0.078, C -0.191 ± 0.17, F -0.29 ± 0.09, M -0.108 ± 0.07, P -0.833 ± 0.14
P54: A -0.2 ± 0.073, W -0.117 ± 0.063, L -0.016 ± 0.04, T -0.831 ± 0.11, C -0.001 ± 0.071, E -0.509 ± 0.11, M -0.009 ± 0.053, S -0.126 ± 0.059, H -0.017 ± 0.077, D -0.539 ± 0.16, I -0.426 ± 0.15, Q -0.117 ± 0.063, F -0.287 ± 0.075, G -0.299 ± 0.059, R 0.012 ± 0.042, N 0.198 ± 0.13, K -0.075 ± 0.1, Y -0.14 ± 0.087, V -0.638 ± 0.09
W40: I -0.139 ± 0.16, H -0.01 ± 0.085, L -0.134 ± 0.048, Y 0.079 ± 0.098, T -0.101 ± 0.06, V -0.111 ± 0.067, K -0.051 ± 0.075, E -0.196 ± 0.09, G -0.547 ± 0.07, Q -0.122 ± 0.066, R 0.121 ± 0.042, D 0.028 ± 0.14, S -0.25 ± 0.05, A -0.3 ± 0.076, C -0.181 ± 0.061, N -0.33 ± 0.15, M 0.037 ± 0.073
A43: P -0.865 ± 0.12, H -0.629 ± 0.26, R -0.842 ± 0.15, N -0.763 ± 0.21, Q -0.839 ± 0.16, M -0.548 ± 0.11, V -0.056 ± 0.058, T -0.409 ± 0.1, G -0.299 ± 0.078, D -0.793 ± 0.22, L -0.853 ± 0.095, C -0.038 ± 0.12, W -0.83 ± 0.15, Y -0.914 ± 0.21, K -0.71 ± 0.17, S -0.578 ± 0.079, I -0.297 ± 0.2
D38: L 0.016 ± 0.044, Y -0.122 ± 0.056, N -0.017 ± 0.062, S 0.005 ± 0.045, M -0.17 ± 0.068, R 0.053 ± 0.054, Q 0.021 ± 0.099, K -0.08 ± 0.091, W -0.154 ± 0.071
E39: F 0.042 ± 0.079, A -0.016 ± 0.052, G 0.066 ± 0.064, N 0.227 ± 0.092, C -0.103 ± 0.11, P -0.207 ± 0.067, R 0.017 ± 0.051, Y -0.226 ± 0.097, I -0.1 ± 0.096, L -0.146 ± 0.043, D -0.228 ± 0.094, V -0.184 ± 0.054, K 0.013 ± 0.072, Q -0.027 ± 0.078, T 0.02 ± 0.055, M 0.148 ± 0.071, W -0.227 ± 0.069, S 0.028 ± 0.051, H 0.188 ± 0.1
V41: F -0.262 ± 0.085, P -0.94 ± 0.2, H -0.929 ± 0.23, R -0.526 ± 0.079, N -1.01 ± 0.3, G -0.72 ± 0.11, C -0.013 ± 0.069, K -0.411 ± 0.13, A -0.495 ± 0.081, T -0.609 ± 0.15, L -0.199 ± 0.048, I -0.353 ± 0.097, D -0.815 ± 0.25, E -1.12 ± 0.47, Q -0.949 ± 0.18, M -0.199 ± 0.069, Y -0.154 ± 0.11, S -0.73 ± 0.11
H47: D -0.006 ± 0.081, E -0.171 ± 0.078, Q -0.026 ± 0.061, G 0.051 ± 0.048, R 0.092 ± 0.048, K 0.048 ± 0.07, Y -0.215 ± 0.11, T -0.172 ± 0.065, F -0.246 ± 0.12, V 0.004 ± 0.053, P -0.585 ± 0.11, L 0.01 ± 0.041, M -0.039 ± 0.052, C -0.045 ± 0.13, I -0.176 ± 0.14, A 0.164 ± 0.06, W -0.176 ± 0.08
R44: V -0.165 ± 0.042, S -0.253 ± 0.063, T -0.23 ± 0.081, L -0.342 ± 0.048, C -0.178 ± 0.11, P -0.673 ± 0.099, F -0.756 ± 0.09, I -0.036 ± 0.09, E -0.268 ± 0.071, M -0.175 ± 0.066, W -0.947 ± 0.19, H -0.74 ± 0.14, K 0.003 ± 0.09, Q -0.23 ± 0.073, Y -0.587 ± 0.13, G -0.898 ± 0.088
Q46: S -0.04 ± 0.061, A 0.036 ± 0.057, K 0.074 ± 0.062, I -0.142 ± 0.1, W -0.228 ± 0.093, V -0.088 ± 0.044, G -0.082 ± 0.061, Y -0.114 ± 0.092, R -0.028 ± 0.047, F -0.207 ± 0.1, M -0.088 ± 0.072, T -0.01 ± 0.062, D -0.198 ± 0.076, H -0.163 ± 0.15, P -0.334 ± 0.074, N -0.027 ± 0.17, C -0.018 ± 0.099, E -0.052 ± 0.056, L -0.056 ± 0.045
G48: E -0.169 ± 0.073, Q -0.574 ± 0.19, A -0.39 ± 0.084, M -0.296 ± 0.076, V -0.741 ± 0.092, L -0.423 ± 0.059, H -0.34 ± 0.16, Y -0.494 ± 0.15, W -0.435 ± 0.091, R -0.376 ± 0.073, F -0.293 ± 0.14, D -0.217 ± 0.067, S -0.132 ± 0.064, P -0.623 ± 0.1, I -0.787 ± 0.22, K -0.328 ± 0.11
Y57: P -0.613 ± 0.1, L -0.023 ± 0.037, G -0.44 ± 0.065, K -0.231 ± 0.081, A 0.102 ± 0.048, F -0.006 ± 0.06, H 0.208 ± 0.086, E -0.595 ± 0.11, N 0.109 ± 0.083, M -0.041 ± 0.063, D -0.161 ± 0.092, I -0.309 ± 0.09
R56: G -0.125 ± 0.061, E 0.053 ± 0.081, P -0.129 ± 0.062, Y -0.174 ± 0.078, V -0.096 ± 0.057, A 0.035 ± 0.06, M -0.126 ± 0.055, H -0.118 ± 0.1, F -0.164 ± 0.072, Q 0.012 ± 0.053, W -0.263 ± 0.12, L -0.117 ± 0.037, T 0.005 ± 0.068, C -0.012 ± 0.12, S 0.052 ± 0.043, K 0.033 ± 0.057, D -0.074 ± 0.11
